{"source": "paper PMC12680351", "about": "“The novel GlcNAc 6-phosphate dehydratase NagS governs a metabolic checkpoint that controls nutrient signaling in Streptomyces” (PLOS Biology, 2025)", "key": {"NagS [1]": {"target": "T1, NagS (Streptomyces coelicolor, UniProt Q9K3V1, S54A)", "T1 construct": "gene SCO4393", "T1 sequence (Q9K3V1 whole entry S54A)": "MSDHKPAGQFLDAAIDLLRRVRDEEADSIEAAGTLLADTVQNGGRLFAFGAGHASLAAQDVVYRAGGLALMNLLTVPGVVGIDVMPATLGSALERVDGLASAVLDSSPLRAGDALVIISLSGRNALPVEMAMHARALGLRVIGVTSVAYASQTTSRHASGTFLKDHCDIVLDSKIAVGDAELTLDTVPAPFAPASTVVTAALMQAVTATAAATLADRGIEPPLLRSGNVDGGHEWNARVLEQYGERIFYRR", "format": "biochemical"}, "NagS [2]": {"target": "T2, NagS (Streptomyces coelicolor, UniProt Q9K3V1)", "T2 construct": "gene SCO4393; N-terminally His6-tagged NagS", "T2 sequence (Q9K3V1 1-251)": "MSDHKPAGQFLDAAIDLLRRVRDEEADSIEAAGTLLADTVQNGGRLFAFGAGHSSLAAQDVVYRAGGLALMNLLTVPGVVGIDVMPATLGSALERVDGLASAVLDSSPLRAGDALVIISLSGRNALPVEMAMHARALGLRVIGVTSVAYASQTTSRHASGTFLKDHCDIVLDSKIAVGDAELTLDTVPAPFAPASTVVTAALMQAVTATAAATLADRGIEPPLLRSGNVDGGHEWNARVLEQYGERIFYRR", "assay": "X-ray crystal structure ([…] Å); competitive inhibition kinetics; thermal denaturation", "format": "biochemical"}, "purified protein [3]": {"substrate": "CC(=O)N[C@@H]1C(O)O[C@H](COP(=O)(O)O)[C@@H](O)[C@@H]1O", "assay": "purified protein"}, "purified protein [4]": {"substrate": "CC(=O)N[C@H]1C(O)O[C@H](COP(=O)(O)O)[C@@H](O)[C@@H]1O", "assay": "purified protein"}, "[5]": {"target": "the molecule itself", "assay": "SEC; analytical size-exclusion chromatography, Superdex 200 10/300 GL, NagS at 35 uM and 70 uM, 20 mM HEPES pH 7.5, 300 mM NaCl, 5% glycerol, 1 mM DTT; calibrated with a protein standard mix (15-600 kDa)"}, "purified protein [6]": {"substrate": "CC(=O)N[C@H]1C(O)O[C@H](COP(=O)(O)O)[C@H](O)[C@@H]1O", "assay": "purified protein", "conditions": "divalent metal cation ([…] ZnCl2 supplemented during expression)"}, "[7]": {"conditions": "catalytic site formed by both monomers, Ser54, Ser91, Glu94, Ser119, Ser121, His53 main chain, ArgB64, AsnB228, AlaB65, GlyB227"}, "[8]": {"conditions": "divalent metal cation ([…] ZnCl2 supplemented during expression)"}}, "note": "Where two headings read alike, the source gives them in different places.", "data": [{"molecule": "CC(=O)N[C@H]1C(O)O[C@H](COP(=O)(O)O)[C@@H](O)[C@@H]1O", "note": "(stereo partly drawn) [GlcNAc-6P]", "values": [{"measurement": "Km", "setting": "NagS [1]", "result": "850 ± 90", "unit": "µM"}]}, {"molecule": "O=C(O)[C@H](O)[C@@H](O)[C@H](O)[C@H](O)COP(=O)(O)O", "note": "[6-phosphogluconate]", "values": [{"measurement": "Ki", "setting": "NagS [2]", "result": "280 ± 30", "unit": "µM"}]}, {"molecule": "GlcNAc-6P dehydratase NagS (SCO4393) of Streptomyces coelicolor (enzyme, UniProt Q9K3V1 1-251, looked up, NagS (SCO4393), Streptomyces coelicolor A3(2) M145; calculated mass of the NagS-His6 monomer 28.29 kDa; The methods say N-terminally His6-tagged (pET-15b); the results write NagS-His6; also called NagS-His6; N-acetylglucosamine-6-phosphate dehydratase; source: E. coli Rosetta (DE3)pLysS, purified (Ni-NTA, size-exclusion chromatography on Superdex 200); not shown: His6, N-terminal, kept) MSDHKPAGQFLDAAIDLLRRVRDEEADSIEAAGTLLADTVQNGGRLFAFGAGHSSLAAQDVVYRAGGLALMNLLTVPGVVGIDVMPATLGSALERVDGLASAVLDSSPLRAGDALVIISLSGRNALPVEMAMHARALGLRVIGVTSVAYASQTTSRHASGTFLKDHCDIVLDSKIAVGDAELTLDTVPAPFAPASTVVTAALMQAVTATAAATLADRGIEPPLLRSGNVDGGHEWNARVLEQYGERIFYRR", "values": [{"measurement": "Km", "setting": "purified protein [3]", "result": "680 ± 50", "unit": "µM"}, {"measurement": "kcat", "setting": "purified protein [3]", "result": "0.9 ± 0.02", "unit": "s⁻¹"}, {"measurement": "kcat/Km", "setting": "purified protein [3]", "result": 1320, "unit": "M⁻¹ s⁻¹"}, {"measurement": "Km", "setting": "purified protein [4]; [7]", "result": "450 ± 30", "unit": "µM"}, {"measurement": "kcat", "setting": "purified protein [4]; [7]", "result": "24.7 ± 0.38", "unit": "s⁻¹"}, {"measurement": "kcat/Km", "setting": "purified protein [4]; [7]", "result": 54800, "unit": "M⁻¹ s⁻¹"}, {"measurement": "stoichiometry N", "setting": "[5]", "result": 2}]}, {"molecule": "NagA (Streptomyces coelicolor A3(2)) (protein) MAPSKVLAGARVVLPTGTVDDGRVIVDGARIADTAPPQAETVDLAGHWVVPGFVDIHNHGGGGASFAGGTAEEILAGVETHRRHGTTTVVASAVTGDLDFLARHAGMLAELAQQGDIVGIHFEGPFISPCRKGAHDEQLLRDPDPAEVRKLVDAAHGHAKMMTLATELPGGLDSVRLLVEHGVIAAVGHTDATYEQTVQAIDAGATVATHLFNAMPPVGHRAPGPITALLEDERITVELINDGTHLHPAALQLAFHHAGAARVAFITDAMDAAGFGDGHYLLGPLEVEVADGVARLVEGGSIAGSTLTLDRAFKRAVTVDRLPVGDVVAAISANPARLLGLDDRIGSLEPGKDADLVVLDDAFDLVGVMRRGEWVVDPHLG", "values": [{"measurement": "Km", "setting": "purified protein [3]; [8]", "result": "2400 ± 440", "unit": "µM"}, {"measurement": "kcat", "setting": "purified protein [3]; [8]", "result": "14.6 ± 1.1", "unit": "s⁻¹"}, {"measurement": "kcat/Km", "setting": "purified protein [3]; [8]", "result": 6060, "unit": "M⁻¹ s⁻¹"}, {"measurement": "Km", "setting": "purified protein [4]; [8]", "result": "1590 ± 210", "unit": "µM"}, {"measurement": "kcat", "setting": "purified protein [4]; [8]", "result": "160 ± 9.02", "unit": "s⁻¹"}, {"measurement": "kcat/Km", "setting": "purified protein [4]; [8]", "result": 101000, "unit": "M⁻¹ s⁻¹"}, {"measurement": "Km", "setting": "purified protein [6]", "result": "2840 ± 410", "unit": "µM"}, {"measurement": "kcat", "setting": "purified protein [6]", "result": "29.2 ± 2.31", "unit": "s⁻¹"}, {"measurement": "kcat/Km", "setting": "purified protein [6]", "result": 10300, "unit": "M⁻¹ s⁻¹"}]}]}
